From the supplement of paper PMC10567573

B1: DLC1 (parent)
chain: AEVVKIRDSFSNQNTETKDTKSR
B2: ATL3 (parent)
chain: YGLQGGMAFLDKRLQVKEHQHEEI

Variants of: B1
Test: protein stability index of a GFP-peptide fusion (GPS, HEK-293T) (PSI 1-6); higher = more stable
Conditions: c terminus: native
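Note: lentivirally expressed fusions sorted by FACS into six bins by GFP to DsRed ratio, PSI derived from sequencing read proportions per bin multiplied by bin number.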

Point of comparison: AEIVKIRDSFSNQNTETKDTKSR, protein stability index 1.63. Against it:
- AEGVKIRDSFSNQNTETKDTKSR — higher, 2.12
- AELVKIRDSFSNQNTETKDTKSR — higher, 2.29
- AEQVKIRDSFSNQNTETKDTKSR — higher, 2.47
- AETVKIRDSFSNQNTETKDTKSR — higher, 2.19
- AEEVKIRDSFSNQNTETKDTKSR — higher, 2.12
- AEHVKIRDSFSNQNTETKDTKSR — higher, 2
- AEFVKIRDSFSNQNTETKDTKSR — higher, 2.09
- AEYVKIRDSFSNQNTETKDTKSR — higher, 1.7
- AEPVKIRDSFSNQNTETKDTKSR — higher, 3.46
- AENVKIRDSFSNQNTETKDTKSR — higher, 3
- AEAVKIRDSFSNQNTETKDTKSR — higher, 2.24
- AEMVKIRDSFSNQNTETKDTKSR — higher, 2.87
- AERVKIRDSFSNQNTETKDTKSR — higher, 1.89
- AEKVKIRDSFSNQNTETKDTKSR — higher, 4.55
- AECVKIRDSFSNQNTETKDTKSR — higher, 2.69
- AEDVKIRDSFSNQNTETKDTKSR — higher, 3.54

Variants of: B2
Test: as above
Conditions: c terminus: a fixed tail appended

Point of comparison: YGLQGGMAFLDKRLQVKEHQQEEI, protein stability index 2.44. Against it:
- YGLQGGMAFLDKRLQVKEHQHREI — lower, 2.16
- YGLQGGMAFLDKRLQVKEHQHQEI — lower, 1.75
- YGLQGGMAFLDKRLQVKEHQHVEI — lower, 1.45
- YGLQGGMAFLDKRLQVKEHQHAEI — higher, 2.54
- YGLQGGMAFLDKRLQVKEHQHDEI — higher, 2.48
- YGLQGGMAFLDKRLQVKEHQHKEI — lower, 1.86
- YGLQGGMAFLDKRLQVKEHQHYEI — higher, 2.6
- YGLQGGMAFLDKRLQVKEHQHLEI — higher, 2.68
- YGLQGGMAFLDKRLQVKEHQHNEI — higher, 3.19
- YGLQGGMAFLDKRLQVKEHQHIEI — higher, 2.94
- YGLQGGMAFLDKRLQVKEHQHSEI — higher, 3.33
- YGLQGGMAFLDKRLQVKEHQHTEI — lower, 1.9
- YGLQGGMAFLDKRLQVKEHQHMEI — lower, 2.24
- YGLQGGMAFLDKRLQVKEHQHFEI — lower, 2.03
- YGLQGGMAFLDKRLQVKEHQHHEI — higher, 2.91
- YGLQGGMAFLDKRLQVKEHQHWEI — higher, 2.76
- YGLQGGMAFLDKRLQVKEHQHPEI — higher, 2.96
- YGLQGGMAFLDKRLQVKEHQHGEI — higher, 2.8
- YGLQGGMAFLDKRLQVKEHQHCEI — higher, 2.48
- YGLQGGMAFLDKRLQVKEHQKEEI — higher, 3.21
- YGLQGGMAFLDKRLQVKEHQDEEI — lower, 2.11
- YGLQGGMAFLDKRLQVKEHQTEEI — higher, 3.49
- YGLQGGMAFLDKRLQVKEHQIEEI — higher, 3.39
- YGLQGGMAFLDKRLQVKEHQPEEI — lower, 2.33
- YGLQGGMAFLDKRLQVKEHQFEEI — lower, 1.6
- YGLQGGMAFLDKRLQVKEHQYEEI — higher, 2.55
- YGLQGGMAFLDKRLQVKEHQCEEI — higher, 2.48
- YGLQGGMAFLDKRLQVKEHQSEEI — higher, 3.88
- YGLQGGMAFLDKRLQVKEHQREEI — higher, 3.51
- YGLQGGMAFLDKRLQVKEHQAEEI — higher, 2.51
- YGLQGGMAFLDKRLQVKEHQVEEI — lower, 2.1
- YGLQGGMAFLDKRLQVKEHQLEEI — higher, 2.8
- YGLQGGMAFLDKRLQVKEHQMEEI — lower, 2.2
- YGLQGGMAFLDKRLQVKEHQEEEI — higher, 3.27
- YGLQGGMAFLDKRLQVKEHVHEEI — higher, 2.99
- YGLQGGMAFLDKRLQVKEHSHEEI — lower, 2.12
- YGLQGGMAFLDKRLQVKEHPHEEI — lower, 2
- YGLQGGMAFLDKRLQVKEHTHEEI — lower, 2.2
- YGLQGGMAFLDKRLQVKEHRHEEI — lower, 1.57
- YGLQGGMAFLDKRLQVKEHWHEEI — lower, 1.55
- YGLQGGMAFLDKRLQVKEHYHEEI — higher, 2.58
- YGLQGGMAFLDKRLQVKEHQHEEP — higher, 2.81
- YGLQGGMAFLDKRLQVKEHQHEEF — higher, 4.03
- YGLQGGMAFLDKRLQVKEHQHEEC — higher, 3.25
- YGLQGGMAFLDKRLQVKEHQHEEH — higher, 3.42
- YGLQGGMAFLDKRLQVKEHQHEEM — lower, 1.71
- YGLQGGMAFLDKRLQVKEHQHEEA — higher, 2.58
- YGLQGGMAFLDKRLQVKEHQHEED — lower, 2.33
- YGLQGGMAFLDKRLQVKEHQHEEL — higher, 2.51
- YGLQGGMAFLDKRLQVKEHQHEEQ — lower, 2.14
- YGLQGGMAFLDKRLQVKEHQHEER — lower, 2.26
- YGLQGGMAFLDKRLQVKEHQHEEK — lower, 2.35
- YGLQGGMAFLDKRLQVKEHQHEES — higher, 2.56
- YGLQGGMAFLDKRLQVKEHQHEEN — higher, 2.89
- YGLQGGMAFLDKRLQVKEHQHEEY — higher, 4.04
- YGLQGGMAFLDKRLQVKEHQHEEE — lower, 2.29
- YGLQGGMAFLDKRLQVKEHQHEEG — higher, 3.23
- YGLQGGMAFLDKRLQVKEHQHEET — lower, 1.79
- YGLQGGMAFLDKRLQVKEHQHEEV — higher, 2.5
- YGLQGGMAFLDKRLQVKEHQHEKI — lower, 2.43
- YGLQGGMAFLDKRLQVKEHQHEPI — higher, 3.04
- YGLQGGMAFLDKRLQVKEHQHEAI — lower, 1.94
- YGLQGGMAFLDKRLQVKEHQHEQI — higher, 2.9
- YGLQGGMAFLDKRLQVKEHQHECI — higher, 3.04
- YGLQGGMAFLDKRLQVKEHQHEWI — higher, 2.57
- YGLQGGMAFLDKRLQVKEHQHEGI — higher, 3.58
- YGLQGGMAFLDKRLQVKEHQHEII — higher, 2.66
- YGLQGGMAFLDKRLQVKEHQHESI — lower, 2.41
- YGLQGGMAFLDKRLQVKEHQHETI — higher, 2.74
- YGLQGGMAFLDKRLQVKEHQHEVI — lower, 2.17
- YGLQGGMAFLDKRLQVKEHQHEYI — higher, 2.76
- YGLQGGMAFLDKRLQVKEHQHELI — lower, 2.25
- YGLQGGMAFLDKRLQVKEHQHEDI — higher, 3.04
- YGLQGGMAFLDKRLQVKEHQHERI — higher, 2.99
- YGLQGGMAFLDKRLQVKEHQHEHI — lower, 2.38
- YGLQGGMAFLDKRLQVKEHQHEMI — higher, 3.12
- YGLQGGMAFLDKRLQVKEHQHENI — higher, 2.85
- YGLQGGMAFLDKRLQVKEHQHEFI — lower, 2.43
